Assay results: US20240301373, “FANZORS ARE RNA-GUIDED NUCLEASES ENCODED IN EUKARYOTIC GENOMES” (Massachusetts Institute of Technology, published 2024)

Legend:
[1] = molecular target: T1, ApmFNuc (ApmHNuc, Isvmimi Fanzor2) (Acanthamoeba polyphaga mimivirus, UniProt Q5UPQ8 SEQ:1-520); test: pulldown; co-purified fRNA identified by small RNA sequencing; settings: tags: Strep tag; RNP co-expressed with fRNA in E. coli
T1 sequence: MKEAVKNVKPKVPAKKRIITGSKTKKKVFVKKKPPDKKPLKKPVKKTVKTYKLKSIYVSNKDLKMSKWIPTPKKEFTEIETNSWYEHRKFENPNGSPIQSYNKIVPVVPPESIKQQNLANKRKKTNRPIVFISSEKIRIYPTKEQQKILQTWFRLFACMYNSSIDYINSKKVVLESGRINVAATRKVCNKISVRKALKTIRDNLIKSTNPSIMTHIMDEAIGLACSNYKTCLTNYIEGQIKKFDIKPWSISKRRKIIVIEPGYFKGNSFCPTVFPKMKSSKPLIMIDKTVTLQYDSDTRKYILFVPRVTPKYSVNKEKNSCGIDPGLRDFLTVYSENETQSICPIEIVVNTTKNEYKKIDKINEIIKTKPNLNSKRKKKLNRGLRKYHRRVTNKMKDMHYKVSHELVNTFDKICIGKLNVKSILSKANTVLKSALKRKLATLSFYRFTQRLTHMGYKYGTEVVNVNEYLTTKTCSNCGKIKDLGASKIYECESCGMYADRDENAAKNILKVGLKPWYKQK

KnFNuc (Fanzor1) = molecular target: T2, KnFNuc (Fanzor1) (Klebsormidium nitens); test: pulldown; co-purified fRNA sequenced
T2 chain: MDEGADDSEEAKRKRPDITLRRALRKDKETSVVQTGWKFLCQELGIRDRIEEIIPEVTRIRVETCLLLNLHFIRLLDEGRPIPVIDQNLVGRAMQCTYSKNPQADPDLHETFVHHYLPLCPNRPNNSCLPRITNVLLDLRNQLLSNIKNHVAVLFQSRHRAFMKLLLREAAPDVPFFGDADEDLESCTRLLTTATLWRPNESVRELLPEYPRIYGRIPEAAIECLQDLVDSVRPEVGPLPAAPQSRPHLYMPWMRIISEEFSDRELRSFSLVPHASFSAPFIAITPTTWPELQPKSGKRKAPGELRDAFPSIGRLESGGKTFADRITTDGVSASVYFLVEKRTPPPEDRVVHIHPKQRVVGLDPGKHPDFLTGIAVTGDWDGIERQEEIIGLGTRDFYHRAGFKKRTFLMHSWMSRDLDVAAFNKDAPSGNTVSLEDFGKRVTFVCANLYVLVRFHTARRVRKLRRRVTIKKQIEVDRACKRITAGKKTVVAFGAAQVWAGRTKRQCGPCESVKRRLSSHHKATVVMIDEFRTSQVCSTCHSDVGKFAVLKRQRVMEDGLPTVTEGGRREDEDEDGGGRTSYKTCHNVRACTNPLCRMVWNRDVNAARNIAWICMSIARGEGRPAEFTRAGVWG
Text: (§1) This study sought to explore whether Fanzor2 proteins from diverse eukaryotes also are active RNA-guided nucleases. Three Fanzor2 representatives from three animals and a Fanzor1 representative from a plant were chosen for this study: 1) Fanzor2 from Aercenaria mercenaria (Venus clam, MmFNuc), 2) Fanzor2 from Dreissena polymorpha (Zebra mussel, DpFNuc), 3) Fanzor2 from Batillaria attramentaria (Japanese mud snail; BaFNuc), and 4) Fanzor1 from Klebsormidium nitens (freshwater green algae; KnFNuc) (FIG. 21A). […] Constructs for co-expression of the fRNA and Fanzor nuclease were cloned in a cell-free transcription/translation system, allowing for isolation of the resulting RNPs to study their fRNA sequences and cleavage activity (FIG. 21B). […] These fRNAs were highly structured with diverse structural motifs and domains (FIG. 28B).

MmFNuc = molecular target: T3, MmFNuc (Mercenaria mercenaria); test: pulldown; co-purified fRNA sequenced
T3 chain: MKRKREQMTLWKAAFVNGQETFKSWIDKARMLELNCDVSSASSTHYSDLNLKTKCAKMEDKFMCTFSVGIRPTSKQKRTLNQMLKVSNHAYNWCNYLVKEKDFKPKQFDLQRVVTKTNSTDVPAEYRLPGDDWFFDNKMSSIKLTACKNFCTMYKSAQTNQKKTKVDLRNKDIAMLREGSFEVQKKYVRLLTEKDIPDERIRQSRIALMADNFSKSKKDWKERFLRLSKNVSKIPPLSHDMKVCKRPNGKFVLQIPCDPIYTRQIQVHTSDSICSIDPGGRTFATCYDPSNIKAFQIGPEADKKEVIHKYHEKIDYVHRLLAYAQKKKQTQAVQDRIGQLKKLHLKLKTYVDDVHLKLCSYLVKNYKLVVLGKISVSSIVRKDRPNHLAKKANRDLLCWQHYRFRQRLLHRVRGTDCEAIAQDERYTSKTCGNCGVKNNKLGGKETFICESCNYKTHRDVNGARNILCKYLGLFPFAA
Text: as §1

DpFNuc = molecular target: T4, DpFNuc (Dreissena polymorpha); test: pulldown; co-purified fRNA sequenced
T4 chain: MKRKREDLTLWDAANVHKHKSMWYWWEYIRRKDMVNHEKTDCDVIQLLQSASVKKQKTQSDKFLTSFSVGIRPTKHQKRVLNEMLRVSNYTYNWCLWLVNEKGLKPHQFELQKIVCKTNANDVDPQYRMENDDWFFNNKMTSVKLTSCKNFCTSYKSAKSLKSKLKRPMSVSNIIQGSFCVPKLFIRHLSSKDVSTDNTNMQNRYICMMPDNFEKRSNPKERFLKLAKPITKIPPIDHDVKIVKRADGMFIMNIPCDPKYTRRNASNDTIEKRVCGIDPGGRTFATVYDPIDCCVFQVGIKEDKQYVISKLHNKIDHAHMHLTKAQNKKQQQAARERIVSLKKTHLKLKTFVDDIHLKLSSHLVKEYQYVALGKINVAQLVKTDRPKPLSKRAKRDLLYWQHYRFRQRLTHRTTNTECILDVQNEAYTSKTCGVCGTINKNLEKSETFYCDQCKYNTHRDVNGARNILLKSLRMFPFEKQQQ
Text: as §1

BaFNuc = molecular target: T5, BaFNuc (Batillaria attramentaria); test: pulldown; co-purified fRNA sequenced
T5 chain: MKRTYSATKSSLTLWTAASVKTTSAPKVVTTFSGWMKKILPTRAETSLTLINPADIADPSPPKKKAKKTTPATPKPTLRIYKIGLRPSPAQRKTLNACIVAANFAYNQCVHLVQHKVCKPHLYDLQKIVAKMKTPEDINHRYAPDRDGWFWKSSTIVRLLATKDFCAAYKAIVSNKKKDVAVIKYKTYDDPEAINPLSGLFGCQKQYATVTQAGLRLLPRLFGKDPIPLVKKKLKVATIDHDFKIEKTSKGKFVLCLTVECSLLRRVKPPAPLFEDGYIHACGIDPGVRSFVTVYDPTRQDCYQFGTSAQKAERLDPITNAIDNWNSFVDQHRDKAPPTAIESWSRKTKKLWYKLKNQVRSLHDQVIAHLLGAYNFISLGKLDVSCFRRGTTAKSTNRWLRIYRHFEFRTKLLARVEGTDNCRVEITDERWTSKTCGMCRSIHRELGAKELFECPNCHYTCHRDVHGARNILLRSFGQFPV
Text: as §1

B1: ApmFNuc fRNA scaffold (21 nt 3' guide appended) (ssRNA)
RNA: AAAAAUAGUCUAAUAAAAUCAGGGGUACAUUCCGCUAGUACUCCACCCUACGGGUUAAGCAAAUGAGAAUAUCGAAACGGUAUGCACAGGAUUCUUCGAGUGAUAAUCUUAGGAUGACUCACUAAGGAGAUGACUAAAGUGUAUCAUUCAAUAUUGUAUUGAACGGUAUUCUUCCAUAGAGAGUUGAUUUUUGGAGUAUCCAGAAAUAUCAACUUUUUAUGAGCGG
[1]
  binding result: binds

B2: KnFNuc fRNA scaffold (ssRNA)
RNA: GGAGGAGGGAGGACAAGCUACAAGACGUGCCACAACGUGCGAGCGUGUACGAACCCGCUCUGUCGCAUGGUGUGGAAUAGAGACGUCAACGCAGCUCGUAACAUAGCUUGGAUCUGUAUGAGCAUAGUCAGAGGCGAGGGCAGGCCAGCGGAGUUCACGAGAGCAGGAAUGUGAGGAUGACUGAGAAUUAGUCGAAAGACAUAGCUGCCUAGAAACGAGUUCAUCUAGGCACUUCGGUGAGAAUCCGAGAUACGGCUGGGUACUGUGGCGAGUGUGCCAUUUUACUCUGAACAGACUGUA
KnFNuc (Fanzor1)
  binding result: binds

B3: MmFNuc fRNA scaffold (ssRNA)
RNA: ACUUCCAAGACCUGUGGUAAUUGCGGUGUGAAGAACAACAAACUUGGUGGAAAGGAAACGUUUACUUGUGAGUGUUGCAAUUACAAAACUCAUCGAGACGUCAACGGAGCGAGAAACAUUCUGUGCAAAUACUUGAAACUUUUUCCAUUCGCAGCAUAACGAAAGAAACUGACAAUCGAUUUUUUCGGGUUCGAUUCUAUCCCACUUGACUCAAAGAGUCAGAGGGCUCGAAUACAUUUUCUGCACAGGUUUUGCUAAUGCAAGAUCUGGGGCAAGAAUGUGUUCGGGUCAAAUGAGUUA
MmFNuc
  binding result: binds

B4: DpFNuc fRNA scaffold (ssRNA)
RNA: AUUGGAUGUUCAAAAUGAAGCAUACACUUCGAAGACGUGUGGAGUGUGUGGAACAAUAAACAAAAAUCUAGAAAAGAGUGAAACAUUUUAUUGCGAUAACUGCAAAUAUAACACACACAGAGACGUUAAUGGUGCUAGAAAUAUUUUGCUAAAAUCGUUGCGCAUGUUUCCAUUUGUCAAUUCGCAGUUAUAAUUACUCUGUAACAAUUAGGUCGAUCCAUCCUAAAUUCGAAAGUCCAUUGCUACGAGACUUUGCGUAUGCUUAGUCCAGGGCAAUUUUCUGCCGAAUGAAAUGGGUUA
DpFNuc
  binding result: binds

B5: BaFNuc fRNA scaffold (ssRNA)
RNA: CGCUCGAGUGGAGGGAACUGACAACUGUAGAGUGGAGAUCACCGACGAACGCUGGACCUCAAAGACGUGUGGCAUGUGCAGAUCCAUCCACCGCGAACUUGGGGCAAAAGAACUAUUCGAGUGCCCCAACUGCCACUACACCUGCCACAGAGACGUGCACGGAGCUCGAAACAUCUUGCUGAGAAGCUUCGGACAGUUUCCAGUCUAGAAAAACACGAACUUUUUCCUUGGCCCAAGGAUUGCCAAACACCACUCAAAUCCUCGUUCAGGGGCCUCGAGUGGCUGGGCAUAUAUGGGUUA
BaFNuc
  binding result: binds
